Data: patent US20090042248

T1: Human C2, P06681
T1 chain: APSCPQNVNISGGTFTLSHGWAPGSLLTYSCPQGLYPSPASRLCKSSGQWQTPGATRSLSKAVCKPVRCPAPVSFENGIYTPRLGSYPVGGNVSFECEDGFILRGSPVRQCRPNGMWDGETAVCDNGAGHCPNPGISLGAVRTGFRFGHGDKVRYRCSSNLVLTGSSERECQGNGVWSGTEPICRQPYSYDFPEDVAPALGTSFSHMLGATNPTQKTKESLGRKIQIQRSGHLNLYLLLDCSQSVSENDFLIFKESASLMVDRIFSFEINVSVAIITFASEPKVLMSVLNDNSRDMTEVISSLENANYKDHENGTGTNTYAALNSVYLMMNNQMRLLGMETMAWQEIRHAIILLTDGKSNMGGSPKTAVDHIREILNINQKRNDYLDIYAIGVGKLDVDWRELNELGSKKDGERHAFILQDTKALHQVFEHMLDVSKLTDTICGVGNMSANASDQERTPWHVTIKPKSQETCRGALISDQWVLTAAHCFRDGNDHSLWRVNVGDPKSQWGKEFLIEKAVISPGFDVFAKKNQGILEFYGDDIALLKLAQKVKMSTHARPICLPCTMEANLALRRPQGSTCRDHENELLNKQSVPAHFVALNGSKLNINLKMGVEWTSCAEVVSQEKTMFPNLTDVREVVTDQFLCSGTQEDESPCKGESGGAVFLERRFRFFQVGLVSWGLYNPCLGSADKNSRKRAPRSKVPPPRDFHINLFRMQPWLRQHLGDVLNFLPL

T2: alpha-2-macroglobulin, P01023
T2 chain: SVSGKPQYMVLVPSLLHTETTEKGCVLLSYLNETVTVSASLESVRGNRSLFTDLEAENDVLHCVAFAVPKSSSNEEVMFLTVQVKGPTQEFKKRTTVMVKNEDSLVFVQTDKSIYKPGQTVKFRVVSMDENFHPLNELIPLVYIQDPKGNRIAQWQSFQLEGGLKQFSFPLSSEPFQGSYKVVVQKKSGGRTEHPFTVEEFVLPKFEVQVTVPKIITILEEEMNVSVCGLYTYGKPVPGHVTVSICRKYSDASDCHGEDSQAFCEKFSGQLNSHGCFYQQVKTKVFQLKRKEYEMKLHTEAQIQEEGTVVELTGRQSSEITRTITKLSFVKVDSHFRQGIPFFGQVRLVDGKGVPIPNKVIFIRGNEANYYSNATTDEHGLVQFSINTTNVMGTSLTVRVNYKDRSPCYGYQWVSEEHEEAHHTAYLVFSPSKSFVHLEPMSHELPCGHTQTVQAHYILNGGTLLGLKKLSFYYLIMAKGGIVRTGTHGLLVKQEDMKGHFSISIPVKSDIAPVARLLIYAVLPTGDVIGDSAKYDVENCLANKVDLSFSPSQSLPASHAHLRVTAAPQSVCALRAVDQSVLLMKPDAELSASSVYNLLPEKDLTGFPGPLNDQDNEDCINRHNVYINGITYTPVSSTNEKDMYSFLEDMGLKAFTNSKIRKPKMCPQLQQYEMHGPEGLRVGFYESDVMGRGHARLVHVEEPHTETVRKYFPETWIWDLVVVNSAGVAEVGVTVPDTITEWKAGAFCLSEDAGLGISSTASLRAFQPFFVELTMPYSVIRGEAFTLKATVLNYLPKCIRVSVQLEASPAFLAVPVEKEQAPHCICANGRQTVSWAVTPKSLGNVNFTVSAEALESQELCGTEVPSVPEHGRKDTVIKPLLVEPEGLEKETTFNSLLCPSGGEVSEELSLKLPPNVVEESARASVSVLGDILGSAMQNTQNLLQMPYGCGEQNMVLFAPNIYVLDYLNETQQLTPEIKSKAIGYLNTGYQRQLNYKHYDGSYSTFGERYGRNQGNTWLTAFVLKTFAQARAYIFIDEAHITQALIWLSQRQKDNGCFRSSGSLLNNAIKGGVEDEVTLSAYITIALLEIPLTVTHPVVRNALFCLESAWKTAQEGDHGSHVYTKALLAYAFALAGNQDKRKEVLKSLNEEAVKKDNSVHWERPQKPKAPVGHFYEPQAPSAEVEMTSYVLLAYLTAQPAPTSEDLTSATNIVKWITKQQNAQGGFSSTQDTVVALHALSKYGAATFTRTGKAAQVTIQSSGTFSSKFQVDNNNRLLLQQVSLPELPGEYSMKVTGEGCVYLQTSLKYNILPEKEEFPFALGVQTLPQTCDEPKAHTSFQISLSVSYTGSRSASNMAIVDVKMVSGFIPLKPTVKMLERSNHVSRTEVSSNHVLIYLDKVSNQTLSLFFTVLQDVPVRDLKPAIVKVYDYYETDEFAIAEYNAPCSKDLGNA

T3: C1r CCP1-CCP2-SP S654A, P00736
T3 chain: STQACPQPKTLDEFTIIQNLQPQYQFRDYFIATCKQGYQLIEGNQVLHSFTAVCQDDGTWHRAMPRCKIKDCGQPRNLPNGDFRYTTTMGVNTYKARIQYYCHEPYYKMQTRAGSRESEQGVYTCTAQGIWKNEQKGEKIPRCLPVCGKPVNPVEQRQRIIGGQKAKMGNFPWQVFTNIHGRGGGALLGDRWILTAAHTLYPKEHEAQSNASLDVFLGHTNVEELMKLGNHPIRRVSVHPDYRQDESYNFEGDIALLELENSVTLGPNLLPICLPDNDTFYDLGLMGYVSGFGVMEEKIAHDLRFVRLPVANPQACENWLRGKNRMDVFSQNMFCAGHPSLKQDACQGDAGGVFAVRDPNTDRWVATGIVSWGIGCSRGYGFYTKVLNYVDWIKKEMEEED

T4: Proenzyme C1s, P09871
T4 chain: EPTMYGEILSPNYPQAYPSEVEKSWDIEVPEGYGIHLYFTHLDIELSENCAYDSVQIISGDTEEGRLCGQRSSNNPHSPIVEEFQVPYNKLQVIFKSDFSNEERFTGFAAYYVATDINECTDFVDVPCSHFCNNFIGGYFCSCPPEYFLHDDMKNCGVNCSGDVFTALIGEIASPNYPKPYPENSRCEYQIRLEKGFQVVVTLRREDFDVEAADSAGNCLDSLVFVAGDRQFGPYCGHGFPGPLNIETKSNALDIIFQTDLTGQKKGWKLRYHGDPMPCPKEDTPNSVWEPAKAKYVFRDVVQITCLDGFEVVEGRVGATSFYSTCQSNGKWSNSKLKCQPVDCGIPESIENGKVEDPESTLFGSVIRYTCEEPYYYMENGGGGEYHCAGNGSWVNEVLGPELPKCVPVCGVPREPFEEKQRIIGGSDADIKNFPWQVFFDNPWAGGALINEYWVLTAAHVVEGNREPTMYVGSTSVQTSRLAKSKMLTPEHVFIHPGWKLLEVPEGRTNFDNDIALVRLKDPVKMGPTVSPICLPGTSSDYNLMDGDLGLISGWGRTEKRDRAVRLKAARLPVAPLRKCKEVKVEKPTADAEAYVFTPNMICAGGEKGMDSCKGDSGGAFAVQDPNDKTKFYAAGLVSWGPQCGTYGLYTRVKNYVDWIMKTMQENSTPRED

T5: C1r CCP2-SP S654A, P00736
T5 chain: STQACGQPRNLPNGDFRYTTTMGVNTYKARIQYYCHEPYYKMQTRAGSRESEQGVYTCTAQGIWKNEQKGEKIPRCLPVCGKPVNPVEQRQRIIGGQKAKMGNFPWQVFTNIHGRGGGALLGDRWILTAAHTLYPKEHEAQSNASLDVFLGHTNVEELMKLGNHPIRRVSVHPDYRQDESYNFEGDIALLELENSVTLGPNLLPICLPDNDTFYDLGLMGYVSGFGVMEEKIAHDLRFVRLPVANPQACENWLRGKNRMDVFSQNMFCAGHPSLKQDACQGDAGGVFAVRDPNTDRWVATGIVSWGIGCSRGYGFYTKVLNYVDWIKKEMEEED

T6: C1r SP S654A, P00736
T6 chain: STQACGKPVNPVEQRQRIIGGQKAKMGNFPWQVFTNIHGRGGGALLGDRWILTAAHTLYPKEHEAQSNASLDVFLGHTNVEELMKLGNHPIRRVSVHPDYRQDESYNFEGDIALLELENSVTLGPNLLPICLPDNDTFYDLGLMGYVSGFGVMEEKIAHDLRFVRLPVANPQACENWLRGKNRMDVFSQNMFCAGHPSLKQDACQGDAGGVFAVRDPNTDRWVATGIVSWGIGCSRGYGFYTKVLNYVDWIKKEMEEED

B1: MASP-2 CCP2-SP fragment (protein)
chain 1: ASMTIVDCGPPDDLPSGRVEYITGPGVTTYKAVIQYSCEETFYTMKVNDGKYVCEADGFWTSSKGEKSLPVCEPVCGLSARTTGGR
chain 2: IYGGQKAKPGDFPWQVLILGGTTAAGALLYDNWVLTAAHAVYEQKHDASALDIRMGTLKRLSPHYTQAWSEAVFIHEGYTHDAGFDNDIALIKLNNKVVINSNITPICLPRKEAESFMRTDDIGTASGWGLTQRGFLARNLMYVDIPIVDHQKCTAAYEKPPYPRGSVTANMLCAGLESGGKDSCRGDSGGALVFLDSETERWFVGGIVSWGSMNCGEAGQYGVYTKVINYIPWIENIISDF
B2: MASP-2 SP fragment (protein)
chain 1: ASMTPVCGLSARTTGGR
chain 2: B1 chain 2
B3: C1r CCP1-CCP2-SP fragment (wild-type) (protein)
chain 1: STQACPQPKTLDEFTIIQNLQPQYQFRDYFIATCKQGYQLIEGNQVLHSFTAVCQDDGTWHRAMPRCKIKDCGQPRNLPNGDFRYTTTMGVNTYKARIQYYCHEPYYKMQTRAGSRESEQGVYTCTAQGIWKNEQKGEKIPRCLPVCGKPVNPVEQRQR
chain 2: IIGGQKAKMGNFPWQVFTNIHGRGGGALLGDRWILTAAHTLYPKEHEAQSNASLDVFLGHTNVEELMKLGNHPIRRVSVHPDYRQDESYNFEGDIALLELENSVTLGPNLLPICLPDNDTFYDLGLMGYVSGFGVMEEKIAHDLRFVRLPVANPQACENWLRGKNRMDVFSQNMFCAGHPSLKQDACQGDSGGVFAVRDPNTDRWVATGIVSWGIGCSRGYGFYTKVLNYVDWIKKEMEEED
B4: C1r SP fragment (wild-type) (protein)
chain 1: STQACGKPVNPVEQRQR
chain 2: B3 chain 2
B5: C1r CCP2-SP fragment (wild-type) (protein)
chain 1: STQACGQPRNLPNGDFRYTTTMGVNTYKARIQYYCHEPYYKMQTRAGSRESEQGVYTCTAQGIWKNEQKGEKIPRCLPVCGKPVNPVEQRQR
chain 2: B3 chain 2

Legend:
Human C2, P06681 = target: T1, Human C2, P06681
[1] = target: T2, alpha-2-macroglobulin, P01023
[2] = target: T3, C1r CCP1-CCP2-SP S654A, P00736
Proenzyme C1s, P09871 = target: T4, Proenzyme C1s, P09871
[3] = target: T5, C1r CCP2-SP S654A, P00736
[4] = target: 'live' C3 (C3 with an intact thiol ester bond), P01024
C1r SP S654A, P00736 = target: T6, C1r SP S654A, P00736

Human C4, P0C0L4, sequence (P0C0L4 whole entry, looked up, the tested form may be a part): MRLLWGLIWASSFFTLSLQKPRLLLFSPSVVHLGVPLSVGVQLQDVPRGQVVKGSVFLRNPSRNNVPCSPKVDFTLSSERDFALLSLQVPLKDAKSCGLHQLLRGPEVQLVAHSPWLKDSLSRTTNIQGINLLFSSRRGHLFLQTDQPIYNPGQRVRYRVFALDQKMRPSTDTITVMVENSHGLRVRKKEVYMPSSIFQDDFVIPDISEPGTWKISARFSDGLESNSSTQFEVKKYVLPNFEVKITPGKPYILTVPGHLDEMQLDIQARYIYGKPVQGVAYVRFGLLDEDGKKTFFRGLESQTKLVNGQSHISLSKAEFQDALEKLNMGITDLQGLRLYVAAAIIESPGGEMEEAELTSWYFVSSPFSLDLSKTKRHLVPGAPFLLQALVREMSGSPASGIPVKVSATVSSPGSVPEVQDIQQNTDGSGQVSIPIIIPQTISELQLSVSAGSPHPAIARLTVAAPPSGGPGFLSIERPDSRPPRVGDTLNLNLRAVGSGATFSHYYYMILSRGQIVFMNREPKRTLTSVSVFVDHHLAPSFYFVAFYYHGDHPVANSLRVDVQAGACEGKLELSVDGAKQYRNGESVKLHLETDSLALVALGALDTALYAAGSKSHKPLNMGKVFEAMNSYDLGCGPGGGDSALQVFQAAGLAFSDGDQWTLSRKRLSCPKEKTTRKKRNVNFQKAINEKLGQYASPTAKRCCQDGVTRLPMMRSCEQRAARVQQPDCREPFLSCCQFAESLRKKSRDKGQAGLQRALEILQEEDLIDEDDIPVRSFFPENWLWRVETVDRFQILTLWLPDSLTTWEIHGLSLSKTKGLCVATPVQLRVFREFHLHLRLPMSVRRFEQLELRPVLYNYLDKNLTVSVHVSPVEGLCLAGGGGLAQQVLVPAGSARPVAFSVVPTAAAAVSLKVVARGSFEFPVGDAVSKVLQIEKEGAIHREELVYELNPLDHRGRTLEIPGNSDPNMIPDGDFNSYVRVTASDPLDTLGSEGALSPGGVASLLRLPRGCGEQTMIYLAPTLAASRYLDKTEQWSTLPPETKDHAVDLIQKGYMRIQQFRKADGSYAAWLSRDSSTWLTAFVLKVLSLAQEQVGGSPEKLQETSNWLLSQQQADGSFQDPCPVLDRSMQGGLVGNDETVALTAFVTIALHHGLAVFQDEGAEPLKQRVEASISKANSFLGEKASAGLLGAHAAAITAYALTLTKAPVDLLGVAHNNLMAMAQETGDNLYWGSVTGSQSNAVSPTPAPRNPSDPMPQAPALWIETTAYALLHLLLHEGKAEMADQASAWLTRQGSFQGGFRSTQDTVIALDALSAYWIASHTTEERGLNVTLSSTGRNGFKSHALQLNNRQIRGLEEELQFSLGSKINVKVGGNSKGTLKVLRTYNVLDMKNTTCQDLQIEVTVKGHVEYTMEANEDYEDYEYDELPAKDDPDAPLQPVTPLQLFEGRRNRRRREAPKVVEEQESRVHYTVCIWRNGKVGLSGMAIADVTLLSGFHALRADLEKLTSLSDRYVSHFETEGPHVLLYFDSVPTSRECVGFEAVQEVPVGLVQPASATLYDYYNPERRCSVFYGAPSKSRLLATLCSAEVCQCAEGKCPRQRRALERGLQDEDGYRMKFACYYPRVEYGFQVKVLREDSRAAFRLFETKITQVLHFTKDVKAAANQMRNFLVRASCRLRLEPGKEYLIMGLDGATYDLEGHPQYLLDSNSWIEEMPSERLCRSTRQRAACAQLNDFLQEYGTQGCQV
'live' C3 (C3 with an intact thiol ester bond), P01024, sequence (P01024 whole entry, looked up): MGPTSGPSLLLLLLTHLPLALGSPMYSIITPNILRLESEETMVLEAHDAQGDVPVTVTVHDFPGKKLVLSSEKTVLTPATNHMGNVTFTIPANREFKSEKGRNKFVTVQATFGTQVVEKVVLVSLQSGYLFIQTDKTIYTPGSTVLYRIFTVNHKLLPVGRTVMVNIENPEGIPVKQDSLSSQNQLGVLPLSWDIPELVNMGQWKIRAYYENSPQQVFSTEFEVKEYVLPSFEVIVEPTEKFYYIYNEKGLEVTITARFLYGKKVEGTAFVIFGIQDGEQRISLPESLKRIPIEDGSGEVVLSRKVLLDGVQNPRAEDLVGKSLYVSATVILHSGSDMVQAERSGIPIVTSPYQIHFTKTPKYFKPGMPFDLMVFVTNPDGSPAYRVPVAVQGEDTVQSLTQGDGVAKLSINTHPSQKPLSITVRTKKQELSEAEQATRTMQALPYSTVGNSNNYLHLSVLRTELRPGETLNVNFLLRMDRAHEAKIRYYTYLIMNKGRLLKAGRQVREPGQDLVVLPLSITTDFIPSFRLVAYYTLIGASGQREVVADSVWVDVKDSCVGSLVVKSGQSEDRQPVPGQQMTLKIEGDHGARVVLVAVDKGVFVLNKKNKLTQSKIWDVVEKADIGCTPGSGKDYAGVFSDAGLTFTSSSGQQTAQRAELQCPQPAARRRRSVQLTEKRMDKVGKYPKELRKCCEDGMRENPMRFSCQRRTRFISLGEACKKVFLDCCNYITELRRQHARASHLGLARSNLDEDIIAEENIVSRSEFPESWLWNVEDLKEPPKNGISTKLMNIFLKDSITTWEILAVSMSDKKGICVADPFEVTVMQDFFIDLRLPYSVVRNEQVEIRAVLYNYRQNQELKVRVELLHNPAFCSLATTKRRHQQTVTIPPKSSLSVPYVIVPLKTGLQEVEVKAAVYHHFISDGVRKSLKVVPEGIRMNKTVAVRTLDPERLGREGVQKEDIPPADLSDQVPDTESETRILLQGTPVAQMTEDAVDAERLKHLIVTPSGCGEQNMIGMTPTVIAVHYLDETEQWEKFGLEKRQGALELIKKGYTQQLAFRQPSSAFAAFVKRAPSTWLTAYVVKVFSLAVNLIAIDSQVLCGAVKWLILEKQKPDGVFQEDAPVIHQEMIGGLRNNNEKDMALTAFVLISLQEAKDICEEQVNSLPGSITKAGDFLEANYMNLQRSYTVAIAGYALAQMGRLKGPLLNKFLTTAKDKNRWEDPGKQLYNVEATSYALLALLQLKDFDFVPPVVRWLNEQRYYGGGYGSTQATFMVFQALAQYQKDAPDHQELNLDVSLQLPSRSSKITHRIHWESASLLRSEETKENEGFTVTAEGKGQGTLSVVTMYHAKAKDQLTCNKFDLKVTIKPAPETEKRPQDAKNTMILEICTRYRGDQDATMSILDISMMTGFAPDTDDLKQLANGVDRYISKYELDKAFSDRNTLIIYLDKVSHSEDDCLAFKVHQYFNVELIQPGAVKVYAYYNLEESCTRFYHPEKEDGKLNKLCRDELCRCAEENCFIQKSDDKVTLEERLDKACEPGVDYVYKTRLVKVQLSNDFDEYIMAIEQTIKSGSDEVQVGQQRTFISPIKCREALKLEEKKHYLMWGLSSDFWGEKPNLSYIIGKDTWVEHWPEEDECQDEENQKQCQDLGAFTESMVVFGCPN
'dead' C3(NH3), P01024, sequence (P01024 whole entry, looked up): as above

| Protein | KM, C2 cleavage (Human C2, P06681) [µM] | kcat, C2 cleavage (Human C2, P06681) [s⁻¹] | kcat/KM, C2 cleavage (Human C2, P06681) [M⁻¹ s⁻¹] | KM, C4 cleavage (Human C4, P0C0L4) [µM] | fold increase in the kcat/KM value of C4 cleavage against the SP domain alone (Human C4, P0C0L4) | kcat, C4 cleavage (Human C4, P0C0L4) [s⁻¹] | kcat/KM, C4 cleavage (Human C4, P0C0L4) [M⁻¹ s⁻¹] | molar excess needed to abolish cleavage of complement substrates [1] | kcat/KM, cleavage of S654A zymogen [2] [s^-1M^-1] | kcat/KM, C1s cleavage (Proenzyme C1s, P09871) [s^-1M^-1] | kcat/KM, cleavage of S654A zymogen [3] [s^-1M^-1] | cleavage of 'live' C3 (control) [4] | kcat/KM, cleavage of S654A zymogen (C1r SP S654A, P00736) [s^-1M^-1] | cleavage of 'dead' C3 (control) ('dead' C3(NH3), P01024) |
| --- | --- | --- | --- | --- | --- | --- | --- | --- | --- | --- | --- | --- | --- | --- |
| B1 | 2.7 | 3 | 1.3e+06 | 0.4 | a 44-fold increase in the kcat/KM value | 2 | 5.7e+06 | or with a large molar excess (40 fold) of alpha-2-macroglobulin |  |  |  |  |  |  |
| B2 | 3.2 | 3.9 | 2.5e+06 | 2 |  | 0.2 | 130000 | or with a large molar excess (40 fold) of alpha-2-macroglobulin |  |  |  |  |  |  |
| B3 |  |  |  |  |  |  |  |  | 6200 | 58000 | 15900 | we observed no cleavages of either 'live' or 'dead' C3 | 45000 | we observed no cleavages of either 'live' or 'dead' C3 |
| B4 |  |  |  |  |  |  |  |  | 72000 | 28000 | 75000 |  | 71000 |  |
| B5 |  |  |  |  |  |  |  |  | 74000 | 208000 | 130000 |  | 68000 |  |
